B1: 4A12-hFc重组蛋白 (Fc fusion)
chain: EVQLLESGGGLVQPGGSLRLSCAASDFAFSSYEMSWVRQAPGKGLEWIGEIHHSGSTYYNPSLKSLVTISRDNSKNTLYLQMNSLRAEDTAVYYCVKDFGHLGQMASWGQGTLVTVSS
B2: 4C5-hFc重组蛋白 (Fc fusion)
chain: EVQLLESGGGLVQPGGSLRLSCAASDFYFADYEMSWVRQAPGKGLEWIGSIYHSGSTYYNPSLKSRVTISRDNSKNTLYLQMNSLRAEDTAMYYCAREWHSGYDYWGQGTLVTVSS
B3: 4D5-hFc重组蛋白 (Fc fusion)
chain: EVQLLESGGGLVQPGGSLRLSCAASSFDFSSYEMSWVRQAPGKALEWIGEIHHSGSTYYNPSLKSRVTISRDNSKNTLYLQMNSLRAEDTAMYYCVKDLGFADHWGQGTLVTVSS
B4: 4A10-hFc重组蛋白 (Fc fusion)
chain: EVQLLESGGGLVQPGGSLRLSCAASSFDFSDYEMSWVRQAPGKGLEWIGEIHHSGSTYYNPSLKSRVTISRDNSKNTLYLQMNSLRAEDTATYYCVKDFVVGETAEFSYWGQGTLVTVSS
B5: 4A12噬菌体 (single-domain antibody 4A12 displayed on phage) (VHH)
VHH: B1 chain
notes: also called 抗体4A12
B6: 4C5噬菌体 (single-domain antibody 4C5 displayed on phage) (VHH)
VHH: B2 chain
notes: also called 抗体4C5
B7: 4D5噬菌体 (single-domain antibody 4D5 displayed on phage) (VHH)
VHH: B3 chain
notes: also called 抗体4D5
B8: 4A10噬菌体 (single-domain antibody 4A10 displayed on phage) (VHH)
VHH: B4 chain
notes: also called 抗体4A10

Molecular target: SARS-Cov-2 spike on lentiviral pseudovirus (SARS-Cov-2, UniProt P0DTC2 14-1273)
Experiment: cell-based or functional assay

Binder | IC50 of pseudovirus infection of ACE2-CHO cells (Luciferase活性)
B1 | 0.19 mg/L
B2 | 2.32 mg/L
B3 | 1.13 mg/L
B4 | 0.66 mg/L

Molecular target: T1, SARS-Cov-1-RBD-hFc (SARS-Cov-1, UniProt P59594 306-527)
T1 construct: domain: RBD
Experiment: phage ELISA, antigen coated at 5 μg/ml, anti-M13-HRP

Binder | binding result
B5 | no binding
B6 | no binding
B7 | no binding
B8 | no binding
